Consider 40 sequences from the nanobody polyreactivity screen of Harvey et al. (2022).

This data set in a line: yeast display, Sf9 membrane polyspecificity reagent, FACS + sequencing; frameworks hold sequencing errors. Summed up: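 Galactose induction of a Saccharomyces cerevisiae BJ5465 synthetic nanobody display library ran 36–48 hours. The cells were then stained for 1 hour at 4 °C with 10% biotinylated, detergent-solubilized Sf9 membrane reagent, pulled down on streptavidin microbeads and FACS-sorted into low and high (top ~1%) gates on expression and reagent-binding fluorescence. Labels for polyreactivity follow the gate of origin.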
Consider “QVQLVESGGGLVQAGGSLRLSCAASGRIVPGNVMGWYRQAPGKERELVAAISSSGGSTYYADSVKGRFTISRDNAKNTVYLQMNSLKPEDTAVYYCNVRSGGKRRYSGRVDYWGQGTQVTVSS”, for which the “polyreactivity (PSR sort gate)” value is “low polyreactivity”.
To “QDQLVDSGGGLVQAGGSLSLSCAASGRNFGLNAKGWYRQAPGKEREFVAAIDWNDASTFYADSVKGRFTISRDNAENTVYLQMNSLKPVETAVYYCAAPWWVTTGTKFDYWGQGTQVTVSS” belongs “high polyreactivity”; to “QVQLVESGGGLVQAGGSLRLSCAAYGRIFAPNAMGWYRQAPGKERELVATISWSGGSTYYADSVNGRFTISRDNSKNYVYLQMNSLKPEDTAVYYCAGSNYQYGVISYDYWGKGTQVTVSS”, “low polyreactivity”.
Turning to “QVQLVESGGGLVQAGGSLRLSCAASGSTSLINVMGWYRQAPGKERELVAAISSSDGSTYYADSVKGRFTISRDNAKNTVYLQMNSLKPEDTAVYYCNADYYGYYGLMGYWGQGTLVTVSS”, the “polyreactivity (PSR sort gate)” value is “low polyreactivity”.
To “QVQLVESGGGLVQAGGSLRLSCAASGITFRFYAMGWYRQAPGKERELVAAISWSGGSTNYADSVKGRFTISRDNAKNTVYLQLNSLKPEDTAVYYCAADQYYYRYIRTSKYDYWGQGTQVTVSS” belongs “high polyreactivity”; to “QVQLVESGGGLVQAGGSLRLSCAASGSTFTYNAMGWYRQAPGKERELVAAIDRSVSTNYADSVKGRFTISRDNAKNTVYLQMNSLKPEDTAVYYCNARHPTDDIVIYDYWGQGTQVTVSS”, “low polyreactivity”; to “QVQLVESGGGLVQAGGSLRLSCAASGSTFQYNVMGWYRQAPGKERELVAAISRSGTRTSYADSVKGRFTISRDYAKNTVYLQMNTLKPEDTAVYYCAAVVYHRYYSGYYYWGQGTQVTVST”, “high polyreactivity”.
To “QVQLQESGGGLVQAGGSLRLSCAASGSIFTQATMGWYRQAPGKERELVAAINFGSSTYYADSVKGRFTISRDNAKSTVYLQMNSLKPEDTAVYYCAVRALWYDFHDYWGQGTQVTVSS” belongs “high polyreactivity”; to “QVQLVESGGGLVQAGGSLRLSCAPSGSILWQYAMGWYRQAPGKERELVAAITYSGGSTHYADSVKGRFTISRDNAKNTVYLQMNSLKPEETAVYYCAAGYWYRYAALRYDHWGQGTQVTVSS”, “low polyreactivity”.
To “QVQLVESGGGLVQAGGSLRLSCAASGRTFPGYAMGWYRQAPGKERELVATITGNGGSTYYADSVKGRFTISRDNAKNTVYLQMNSLKPEDTAVYYCAAGRRRPYVRAYRGTDYWGQGTQVTVSS” belongs “low polyreactivity”; to “QVQLVESGGGLVQAGGSLRLSCAASGGIFGGYAMGWYRQAPGKEGELVPVITSGGSTYYADSVKARFTISRDNAKNTVYLQMNSLKPEDTAVYYCAADGHSYSYSTYDYWGQGTQVTVSS”, “low polyreactivity”.
In the case of “QVQLVESGGGLVQAGGSLRLSCAASGSIFRSSDMGWYRQAPGKERELVAAISDSTGTTYYADSVKGRFTISRDNAKNTVYLQMNSLKPEDTAVYYCAADYFWYRSGRYHYWGQGTQVTVSS”, the “polyreactivity (PSR sort gate)” value was “high polyreactivity”.
To “QVQLVESGGGLVQAGGSLRLSCAASGNIFKYYTMGWYRQAPGKERELVAAITSGGRTNYADSVKGRFTISRDNAKNTVYLQMNSLKPEDTAVYYCAAYDVIYSQGFDYWGQGTQVTVSS” belongs “low polyreactivity”.
On to “QVQHVESGGGLVQAGGSLRLSCAASGSILYLYAMGWYRQAPGKERELVAAISLGDGSTYYADSVKGRFTISRDNAKNTVYLQMNSLKPEDTAVYYCNADRYTYWQDYNYWGQGTQVTVSS”, for which the “polyreactivity (PSR sort gate)” value is “low polyreactivity”.
To “QVQLVESGGGLVQAGGSLRLSCAASGSISYSNAMGWYRQAPGKERELVAAISWSTGRTYYADSVKGRFTISRDNAKNTVYLQMNSLKPEDTAVYYCATRLYPGGPYDYWGQGTQVTVSS” belongs “high polyreactivity”; to “QVQLVESGGGLVQAGGSLRLSCAASGSIFRRYAMGWYRQAPGKERELVATISYRGGTTYYADSVKVRFTISRDNAKNTVYLQMNSLKPEDTAVYYCNTLYYRGIYDHWGQGTQVTVSS”, “high polyreactivity”.
To “QVQLVESGGGLVQAGGSLRLSCAASGYIFGNYAMGWYRQAPGKERELVADITWRGDSTYADSVKGRFTISRDNAKKTVYLQMNSLKPEDTAVYYCAADIATEYWYTGYDHWGQGTQVTVSS” belongs “low polyreactivity”; to “QVQLVESGGGLVQAGGSLRLSCAASGRTFVGNAMGWYRQAPGKERELVATITRRGGSTYYADSVKGRFTISRDNAKNTVYLQMNSLKPEDTAVYYCSAGSQPGRKYYYWGQGTQVTVSS”, “high polyreactivity”; to “QVQLVESGGGIVQAGGSLRLSCAASGRIFQLYGMGWYRQAPGKERECVAAISYGGGSTYYADSVKGRFTISRDIAKNTVYFKMNSLKPEDTAVYYCAAERRFYSLAKYQSMDYWGQGTQVTVSS”, “low polyreactivity”.
To “QVQLVESGGGLVQAGGSLRLSCAASGSTFWQNAMGWYRPAPGKERELVAAIRSRGDRTYYADSVKGRFTISRDNAKNTVYLQMNSLKPEDTAVYYCAAYAGYSDQARYYYWGQGTLVTVSS” belongs “high polyreactivity”; to “QVQLVESGGGLVQAGGSLRLSCAASGFTFFSNAMGWYRQAPGKDRELVAAITSSGGSTYADSVKGRFTISRDNAKNTVYLQMNSLKPEDTAVYYCAADAQAPPCGFKEYDYWGQGTQVTVSS”, “low polyreactivity”; to “QVHLVESGGGLVQAGGSLRLSCAASGFIFSGYALGWKRQAPGKERELVAAITSSGDGTYYADSVKGRFTISRDNAKNTVYLQMNSLTPEDTAVYYCNAGRARYFWRTDRFDYWGQGTQVTVSS”, “high polyreactivity”.
Turning to “QVQLVESGGGLVQAGGSLRLSCAASGSTFGLYAMGWYRQAPGKERELVAAISYNTGRTYYADSVKGRFTISRDNAKNTVYLQMNSLKPEDTAVYYCAAEYFIWSYTRYEYWGQGTQVTVSS”, the “polyreactivity (PSR sort gate)” value is “high polyreactivity”.
To “QVQLVESGGGLVQAGGSLRLSCAASGRIFVYNAMGWYRQAPGKERELVAAISGGGSTYYADSVKGRFTISRDNAKNTVYLQMNSLKPEDTAVYYCNTVFSGYARGWFQPAYNYWGQGTQVTVSS” belongs “high polyreactivity”; to “QVQLVESGGGLVQAGGSLRLSCAASGSTFFVYDMGWYRQAPGKERELVAAISISDGGTYYADSVKGRFTISRDNAKNTVYLQMNSQKPVDTAVYYCAADYSERYFRGYDYWGQGTQVTVSS”, “low polyreactivity”; to “QGQLVESGGGLVQAGGSLRLSCAASGSTFQGYAMGWYRQAPGKERELVAAISGRSGSTYYADSVKGRFTISRDNAKNTVYLQMNSLKPEDTADYYCAAGIPFRQRLRRYYYWGQGSQVTVSS”, “high polyreactivity”.
To “QVQLVESGGGLVQAGGSLRLSCAASGFIFEKYTMGWYRQAPGKERELVAAITWNGGSTYYADSVKGRFTISRDNAKNTVYLQMNSLIPEDTAVYYCARDDRDISGESGREGFLYDYWGQGTQVTVSS” belongs “low polyreactivity”; to “QVQLVESGGGLVQAGGSLRLSCAASGSIFYYYDMGWYRQAPGKERELVAAIRGSGGSTYYADSVKGRFTISRDNAKNTVYLQMNSLKPEDTAVYYCAAEFGDQRFYRQYVRRDHWGQGTQVTVSS”, “low polyreactivity”; to “QVQLVESGGGLVQAGGSLRLSCAASGRTFYYYAMGWYRPAPGKERELVAAISWSGGRTYYADSVKGRFTISRDNAKNTVYLQMNSLKPEDTAVYYCNAEPPRGYTVSSGGEMDYWGQGTQVTVSS”, “low polyreactivity”.
To “QVQLVESGGGLVQAGGSLRLSCAPSGSTFYVNTMGWYRQAPGKERELVAAITATGASTYYADSVKGRFTISRDNAKNTVYVQMNSLKPEDTAVYYCNVRLRIRSGYWGQGTQVTVSS” belongs “high polyreactivity”; to “QDQLVESGGGKVQAGGSLRLRCAASGRIFQYYTMVWSRQAPGKERELVAGITRGDRTYADSVKGRFTISRDNAKNTVYLQMNSLKQEDTAVYYCNADVYPYTLALPAGMGYWGQGTQVTVSS”, “high polyreactivity”.
Regarding “QVQLVESGGGIVQARGSLRLSSAASGNIFRINGMGWSRQERGKERELVASITRSGSTYYADSVKGRFTISRDNAKNTVYLQMNILKPEDTAVYYCAADSSSYGVRFDYWGQGTQVTVSS”, the “polyreactivity (PSR sort gate)” value was “low polyreactivity”.
To “HVQLEESGGGEVQAGGSLRLTCAASGLIYTTYAMGWYRPAPGTERELVAAISRRGSRTYYADSVKGRFTISRDNAKNTVYLQMNSLNPEDTAVYYCNALTGSFKTDSFDYWGQGTQVTVSS” belongs “high polyreactivity”.
To “QVQLVESGGGLVQAGGSLRLTCAASGLTFGGNAMGWYRQAHRKERELVAAISWSDDTTDYADSVKGRFTISRDNAKNSVYLQMNSLNPEDTAIYYCAARLPFEHVDYWGQGTQVTVSS” belongs “low polyreactivity”; to “QVQHVESVGGLVQAGGSLRLSCAASGRTFGAYDMGWYRQAPGKERELVAAITRSGGSTYYADSVKGRFTISRDNAKNTVYLQMNSLKPEDTAVYYCAARDQVYNYRFGSRGGVYYWGQGTQVTVSS”, “high polyreactivity”.
“QVQLVESGGGLVQAGGTLRLSCAACGFTFSSYAMGWYRQAPGKERELVAAITYRGGSTYYADSVKGRFTISRDNAMNNVYLQMNSLKPEDTAVYYCAARWGYRMYWGQGTQVTVSS”: the “polyreactivity (PSR sort gate)” value was “high polyreactivity”.
To “QVQLVESGGGLVQAGGSLRLSCAASGNTFWRYTMGWYRQAPGKERELVAAISSSGGSTYYADSVKGRFTISRDNAKNTVYLQMNSLKPEDTAVYYCAAERRLYKIFSYGYWGQGTQVTVSS” belongs “high polyreactivity”; to “QVQLLESGGGLVQAGGSLRLSCAASGIIFLDNAMGWYRQAPGKERELVADITSSGGSTYYADSVKGRFTISRDNAKNTVSLQMNSLKPEDTAVYYCAATRPSYNDAESDYWGQGTQVTVSS”, “low polyreactivity”; to “QVQLVESGGGLVQAGGSLRLSCAASGRIFGLNAMGWYRQAPGKERELVAAITGSVGSTYYADSVKGRFTISRDNAKNTVYLQMNSLKPEDTAVYYCYAEYDSRRSSYYRHFNYWGQGTQVTVSS”, “low polyreactivity”.
In the case of “QVQLVESGGGLVQEGGSLRLSCAASGRTFYQYAMGWYRQAPGKERELVAVINGGGSTNYADSVKGRFTISRDNAKNTVYLQMNSLIPEDTAVYYCNADDVFDFDYWGQGTQVTVSS”, the “polyreactivity (PSR sort gate)” value is “low polyreactivity”.
